{"source": "patent US20060251625A1", "about": "(published 2006)", "key": {"[1]": {"target": "T1, IKK-γ subunit (endogenous, 293T cells) (human, UniProt Q9Y6K9 1-419)", "T1 construct": "also called endogenous IKK-γ", "T1 sequence (Q9Y6K9 whole entry)": "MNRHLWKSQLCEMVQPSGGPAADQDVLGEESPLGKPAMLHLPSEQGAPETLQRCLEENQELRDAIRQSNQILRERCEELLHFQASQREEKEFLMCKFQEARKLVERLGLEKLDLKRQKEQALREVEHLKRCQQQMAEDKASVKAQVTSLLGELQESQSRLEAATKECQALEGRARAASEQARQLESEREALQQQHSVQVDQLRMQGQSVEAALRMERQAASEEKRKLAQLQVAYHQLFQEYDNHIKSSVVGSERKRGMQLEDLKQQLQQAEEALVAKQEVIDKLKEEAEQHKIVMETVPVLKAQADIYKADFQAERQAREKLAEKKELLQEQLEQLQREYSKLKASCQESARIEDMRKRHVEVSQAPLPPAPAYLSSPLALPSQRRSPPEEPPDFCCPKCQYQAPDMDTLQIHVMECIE", "test": "co-immunoprecipitation with anti-IKK-γ from 293T lysates, immunoblot (FIG. 7C)"}, "[2]": {"target": "T2, Receptor Interacting Protein RIP (UniProt Q13546 1-671, limits assumed)", "T2 sequence (looked up)": "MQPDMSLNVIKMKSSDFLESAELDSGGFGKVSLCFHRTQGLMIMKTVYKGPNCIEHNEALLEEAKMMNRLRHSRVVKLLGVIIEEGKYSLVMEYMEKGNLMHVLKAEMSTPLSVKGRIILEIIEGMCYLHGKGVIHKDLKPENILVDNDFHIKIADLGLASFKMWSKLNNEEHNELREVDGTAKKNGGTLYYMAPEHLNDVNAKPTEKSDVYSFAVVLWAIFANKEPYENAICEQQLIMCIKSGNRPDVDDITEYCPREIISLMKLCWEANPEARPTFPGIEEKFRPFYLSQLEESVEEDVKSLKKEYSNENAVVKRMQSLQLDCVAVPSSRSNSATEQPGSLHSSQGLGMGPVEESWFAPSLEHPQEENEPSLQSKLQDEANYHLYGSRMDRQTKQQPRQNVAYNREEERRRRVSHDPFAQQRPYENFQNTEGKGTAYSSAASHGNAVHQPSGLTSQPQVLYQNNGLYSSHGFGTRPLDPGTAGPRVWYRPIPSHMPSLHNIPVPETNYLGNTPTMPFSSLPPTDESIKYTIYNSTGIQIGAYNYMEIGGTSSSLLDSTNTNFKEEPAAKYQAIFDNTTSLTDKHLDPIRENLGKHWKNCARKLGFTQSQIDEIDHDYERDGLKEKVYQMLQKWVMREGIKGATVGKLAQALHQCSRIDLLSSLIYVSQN", "test": "not described (data not shown)"}, "[3]": {"target": "T3, TNF Receptor Associated Factor 2 TRAF2 (UniProt Q12933 1-501, limits assumed)", "T3 sequence (looked up)": "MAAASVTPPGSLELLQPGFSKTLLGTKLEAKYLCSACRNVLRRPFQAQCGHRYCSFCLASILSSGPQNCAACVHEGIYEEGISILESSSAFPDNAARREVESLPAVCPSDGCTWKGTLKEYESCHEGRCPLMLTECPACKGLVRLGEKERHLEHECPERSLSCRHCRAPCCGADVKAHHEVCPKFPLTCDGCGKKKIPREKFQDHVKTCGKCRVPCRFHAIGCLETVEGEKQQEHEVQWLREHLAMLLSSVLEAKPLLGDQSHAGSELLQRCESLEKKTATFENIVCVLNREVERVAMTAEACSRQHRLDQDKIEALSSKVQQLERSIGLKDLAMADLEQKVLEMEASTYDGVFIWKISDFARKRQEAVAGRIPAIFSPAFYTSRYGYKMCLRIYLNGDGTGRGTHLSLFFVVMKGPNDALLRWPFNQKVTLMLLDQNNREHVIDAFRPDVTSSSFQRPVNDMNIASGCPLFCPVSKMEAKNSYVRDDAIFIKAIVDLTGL", "test": "not described (data not shown)"}, "[4]": {"target": "T4, IKK2 (HA epitope-tagged, expressed from pHA-IKK2), O14920", "T4 chain": "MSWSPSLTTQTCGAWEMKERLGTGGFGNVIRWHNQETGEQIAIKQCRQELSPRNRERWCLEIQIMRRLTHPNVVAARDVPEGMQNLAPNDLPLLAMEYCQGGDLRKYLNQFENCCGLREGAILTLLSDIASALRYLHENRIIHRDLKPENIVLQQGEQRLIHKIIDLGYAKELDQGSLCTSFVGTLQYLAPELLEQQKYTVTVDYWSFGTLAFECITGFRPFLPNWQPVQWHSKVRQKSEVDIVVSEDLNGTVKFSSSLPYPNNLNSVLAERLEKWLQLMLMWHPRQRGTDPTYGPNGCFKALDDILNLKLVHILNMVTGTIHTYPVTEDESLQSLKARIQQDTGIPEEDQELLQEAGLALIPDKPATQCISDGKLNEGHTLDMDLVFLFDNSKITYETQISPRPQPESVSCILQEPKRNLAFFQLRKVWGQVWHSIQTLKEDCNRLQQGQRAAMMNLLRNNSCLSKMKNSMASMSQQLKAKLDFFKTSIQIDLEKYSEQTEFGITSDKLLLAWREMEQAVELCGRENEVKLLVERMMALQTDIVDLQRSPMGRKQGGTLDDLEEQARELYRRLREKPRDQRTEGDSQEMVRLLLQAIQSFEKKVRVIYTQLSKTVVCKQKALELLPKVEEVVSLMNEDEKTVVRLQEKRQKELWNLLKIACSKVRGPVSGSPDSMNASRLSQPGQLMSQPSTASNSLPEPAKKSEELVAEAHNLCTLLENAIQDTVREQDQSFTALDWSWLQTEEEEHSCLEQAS"}}, "data": [{"binder": "Molluscum contagiosum virus (MCV) MC160 protein (other, also called wild type MC160) MAHEPIPFSFLRNLLAELDASEHEVLRFLCRDVAPASKTAEDALRALQRRRLLTLSSMAELLCALRRFDVLKVRFGMTRECAGRLLGHGFLSQYRLQVAAINNMVGSEDLRVMCLCAGKLLPPSCTPRCLVDLVSALEDAGAISPQDVSVLVTLLHAVCRYDLSVALSAVAHGHMTVGVGTPVQDEPMDVLEVDDAEPMEATPACDEIGVVKLAGAASAGAPLADGAFAACTSAGKGEDLATSDLTDSEPEDSVFAVADPVYADVDLSMFVRANATADSSMFVNADAGADSSLVNADAGADSSLVNADAGADSSLVNAVADANSSLMRTTSACTDSEPEDSAGPSCAGMALSMFGRAKSVSSLLLRTKASY", "values": [{"measurement": "binding result", "setting": "[1]", "result": "no binding"}, {"measurement": "binding result", "setting": "[2]", "result": "no binding"}, {"measurement": "binding result", "setting": "[3]", "result": "no binding"}]}, {"binder": "IKK1 (FLAG epitope-tagged, expressed from pFLAG-IKK1) (protein) MERPPGLRPGAGGPWEMRERLGTGGFGNVCLYQHRELDLKIAIKSCRLELSTKNRERWCHEIQIMKKLNHANVVKACDVPEELNILIHDVPLLAMEYCSGGDLRKLLNKPENCCGLKESQILSLLSDIGSGIRYLHENKIIHRDLKPENIVLQDVGGKIIHKIIDLGYAKDVDQGSLCTSFVGTLQYLAPELFENKPYTATVDYWSFGTMVFECIAGYRPFLHHLQPFTWHEKIKKKDPKCIFACEEMSGEVRFSSHLPQPNSLCSLVVEPMENWLQLMLNWDPQQRGGPVDLTLKQPRCFVLMDHILNLKIVHILNMTSAKIISFLLPPDESLHSLQSRIERETGINTGSQELLSETGISLDPRKPASQCVLDGVRGCDSYMVYLFDKSKTVYEGPFASRSLSDCVNYIVQDSKIQLPIIQLRKVWAEAVHYVSGLKEDYSRLFQGQRAAMLSLLRYNANLTKMKNTLISASQQLKAKLEFFHKSIQLDLERYSEQMTYGISSEKMLKAWKEMEEKAIHYAEVGVIGYLEDQIMSLHAEIMELQKSPYGRRQGDLMESLEQRAIDLYKQLKHRPSDHSYSDSTEMVKIIVHTVQSQDRVLKELFGHLSKLLGCKQKIIDLLPKVEVALSNIKEADNTVMFMQGKRQKEIWHLLKIACTQSSARSLVGSSLEGAVTPQTSAWLPPTSAEHDHSLSCVVTPQDGETSAQMIEENLNCLGHLSTIIHEANEEQGNSMMNLDWSWLTE", "values": [{"measurement": "phosphorylation of recombinant IκBα in an in vitro kinase assay of anti-IKK1 immunoprecipitates", "setting": "[4]", "result": "a phosphorylated form of recombinant IκBα was easily detected"}]}]}
